Like-named read-outs stand apart in the source and are kept apart here. One block for each binder: values may come before it.
Legend:
human C3b [1] = biological target: T1, human C3b (human, UniProt P01024 23-667; P01024 749-1663); assay: inhibition of properdin binding to C3b (ELISA)
[2] = biological target: Properdin peptide (71-110) …; assay: ELISA saturation binding
human C3b [3] = biological target: T1, human C3b; assay: inhibition of properdin binding to C3b (ELISA); remark: listed apart in the source

Chain of Properdin peptide (71-110) … (peptide, as listed by the source): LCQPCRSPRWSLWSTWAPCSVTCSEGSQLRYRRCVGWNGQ

IC50 (human C3b [1]): 301 µg/mL
Binder: RYRRCVGWNG [Properdin peptide RYRRCVGWNG (99-108)]

Kd [2]: 161 nM
B1: MoAb^71-110 (antibody, V domains shown)
VH: QVLLQQSAPELARPGASVKMSCTASGYIFTNYPIHWVKQRPGQGLEWIGFIDPGGGYDEPDERFRDRATLTADKSSSTAYMQLSSLTSEDSAIYYCARRGGGYYLDYWGQDTTLTVSA
VL: SIVMTQTPKFLLVSAGDRITITCKASQSVNNDVAWYQQKPGQSPKLLIYYASNRYTGVPDRFTGSGYGTDFTFTITTVKAEDLAVYFCQQDYSSPLTFGAGTKLELK

IC50 (human C3b [3]): 322 µg/mL
Binder: CRSPRWSLWS [Properdin peptide CRSPRWSLWS (75-84)]
